Target: Glycocalicin, the soluble extracellular portion of human GP Ibα (human) (UniProt P07359)
Test: cell adhesion assay

Chain of UniProt P07359 (P07359 17-531): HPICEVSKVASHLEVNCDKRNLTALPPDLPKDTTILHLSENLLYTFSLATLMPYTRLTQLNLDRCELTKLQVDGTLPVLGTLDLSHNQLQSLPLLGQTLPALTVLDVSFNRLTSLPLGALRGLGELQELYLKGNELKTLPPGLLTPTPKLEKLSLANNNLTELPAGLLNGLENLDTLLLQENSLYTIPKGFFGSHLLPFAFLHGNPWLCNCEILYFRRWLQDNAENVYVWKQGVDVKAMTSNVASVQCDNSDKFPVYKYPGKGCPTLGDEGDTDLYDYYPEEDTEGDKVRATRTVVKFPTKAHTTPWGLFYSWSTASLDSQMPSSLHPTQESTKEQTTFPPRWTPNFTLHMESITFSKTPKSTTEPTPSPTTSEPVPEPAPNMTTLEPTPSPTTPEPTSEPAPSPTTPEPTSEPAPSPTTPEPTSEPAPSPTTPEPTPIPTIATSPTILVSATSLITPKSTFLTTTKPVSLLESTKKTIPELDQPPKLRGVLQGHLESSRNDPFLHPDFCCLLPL

Work on “phosphatidylinositol glycan–linked form of P-selectin on CHO cells (CHO-P) (from UniProt P16109 42-830) (receptor)” yielded a fold adhesion over untransfected CHO cells of 5 fold.

— article PMC2195629
